# Experimental data taken from the supplement of paper PMC10567573.
# B1: PCDHGA10 (parent)
# chain: FHELQMQVTASDSGDPPLSSNVSL
# B2: PPFIA4 (parent)
# chain: PGVHRRYSALREESAKDWETSPLP
# Variants of: B1
# Assay: protein stability index of a GFP-peptide fusion (GPS, HEK-293T) (PSI 1-6); higher = more stable
# Details: c terminus: a fixed tail appended
# 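Further: lentivirally expressed fusions sorted by FACS into six bins by GFP to DsRed ratio, PSI derived from sequencing read proportions per bin multiplied by bin number.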
row,Variant,protein stability index
1,S20D,3.06
2,S20E,2.75
3,S20F,2.69
4,S20G,1.91
5,S20H,2.05
6,S20I,2.85
7,S20K,1.85
8,S20L,2.69
9,S20M,2.2
10,S20N,2.47
11,S20P,2.54
12,S20Q,1.98
13,S20R,1.42
14,S20T,2
15,S20V,3.46
16,S20W,3.19
17,S20Y,1.83
18,N21A,2.25
19,N21C,2.09
20,N21D,2.5
21,N21E,2.61
22,N21F,1.54
23,N21G,2.24
24,N21H,2.06

row,Variant,protein stability index
1,N21I,1.79
2,N21K,2.08
3,N21L,2.34
4,N21M,1.75
5,N21P,2.5
6,N21Q,2.05
7,N21R,1.91
8,N21S,2.1
9,N21T,2.09
10,N21V,1.58
11,N21W,1.55
12,N21Y,1.64
13,V22A,2.52
14,V22C,2.38
15,V22D,3.4
16,V22E,3.24
17,V22F,1.8
18,V22G,2.72
19,V22H,3.13
20,V22I,1.85
21,V22K,2.84
22,V22L,2.71
23,V22M,2.34
24,V22N,2.77

row,Variant,protein stability index
1,V22P,2.34
2,V22Q,2.43
3,V22R,2.69
4,V22S,3.11
5,V22T,2.83
6,V22W,2.05
7,V22Y,2.56
8,S23A,2.15
9,S23C,1.72
10,S23D,3.16
11,S23E,3.33
12,S23F,2.39
13,S23G,2.01
14,S23H,2.14
15,S23I,1.89
16,S23K,2.84
17,S23L,2.05
18,S23M,2.15
19,S23N,2.46
20,S23P,2.82
21,S23Q,2.1
22,S23R,2.51
23,S23T,2.18
24,S23V,2.05

row,Variant,protein stability index
1,S23W,2.08
2,S23Y,1.75
3,L24A,3.29
4,L24C,2.84
5,L24D,3.17
6,L24E,3.07
7,L24F,2.06
8,L24G,2.52
9,L24H,2.84
10,L24I,1.83
11,L24K,2.79
12,L24M,2.68
13,L24N,2.96
14,L24P,2.9
15,L24Q,3.26
16,L24R,2.75
17,L24S,3.29
18,L24T,3.22
19,L24V,2.72
20,L24W,2.64
21,L24Y,2.31

# Variants of: B2
# Assay: as above
# Details: c terminus: a fixed tail appended
row,Variant,protein stability index
1,P1A,3.5
2,P1C,2.65
3,P1D,3.93
4,P1E,3.49
5,P1F,3.63
6,P1G,4.03
7,P1H,4.36
8,P1I,4.16
9,P1K,4.41
10,P1L,3.11
11,P1M,3.51
12,P1N,3.88
13,P1Q,4.18
14,P1T,4.16
15,P1V,3.74
16,P1Y,4.17
17,G2A,3.85
18,G2C,3.42
19,G2D,4.4
20,G2H,3.18
21,G2I,4.51
22,G2K,3.98
23,G2M,3.62
24,G2N,4.5
25,G2Q,4.43

row,Variant,protein stability index
1,G2R,4.11
2,G2S,4.28
3,G2T,4.67
4,G2V,4.16
5,G2W,4.36
6,G2Y,4.08
7,V3C,4.08
8,V3D,4.89
9,V3E,4.33
10,V3F,4.02
11,V3G,4.84
12,V3H,4.44
13,V3L,3.66
14,V3M,5.03
15,V3N,4.45
16,V3P,4.6
17,V3Q,4.42
18,V3R,4.33
19,V3S,3.89
20,V3T,4.7
21,V3Y,3.55
22,H4A,4.25
23,H4C,2.79
24,H4D,4.37
25,H4E,4.53

row,Variant,protein stability index
1,H4I,4.14
2,H4L,3.77
3,H4M,4.49
4,H4N,4.52
5,H4P,4.33
6,H4R,3.42
7,H4T,4.36
8,H4V,3.8
9,H4W,3.15
10,H4Y,4.81
11,R5A,4.86
12,R5C,2.68
13,R5D,5.06
14,R5F,3.99
15,R5G,3.96
16,R5H,4.27
17,R5K,4.34
18,R5L,3.99
19,R5M,4.71
20,R5P,4.54
21,R5Q,4.6
22,R5S,4.58
23,R5T,3.91
24,R5V,3.67
